Test results from publication PMC6975058.
One block for each substance: values may come before it.

Columns and labels:
[1] = target: trastuzumab light chain produced alone in HEK293 (in vivo folded LC); test: denaturing, non-reducing SDS-PAGE; MiniProtean TGX Stain-free gels 4-20%, band densitometry; shows only disulfide-linked species
[2] = target: trastuzumab light chain produced alone in HEK293 (in vivo folded LC); test: SEC; SEC-HPLC under native conditions, Zenix-C SEC-300, mobile phase PBS, 0.35 ml/min, absorbance at 214 nm; the isolated chain alone
[3] = target: trastuzumab heavy chain produced alone in HEK293 (in vivo folded HC); test: denaturing, non-reducing SDS-PAGE; MiniProtean TGX Stain-free gels 4-20%, band densitometry; shows only disulfide-linked species
[4] = target: trastuzumab light chain, refolded in vitro by slow dialysis; test: SEC; SEC-HPLC under native conditions, Zenix-C SEC-300, mobile phase PBS, 0.35 ml/min, absorbance at 214 nm; the isolated chain alone

percent of LC in the 42 KDa band under denaturing conditions [1]: 55%
stoichiometry N [2]: 2
Substance: trastuzumab light chain produced alone in HEK293 (in vivo folded LC) (domain or fragment)

stoichiometry N [3]: 2
Substance: trastuzumab heavy chain produced alone in HEK293 (in vivo folded HC) (domain or fragment)

stoichiometry N [4]: 2
Substance: trastuzumab light chain, refolded in vitro by slow dialysis (domain or fragment)
